Reference: the supplement of paper PMC12764529
± gives the half width of the 95% confidence interval.

Key:
[1] = folding stability dG unfold from chymotrypsin proteolysis; higher = more stable
Outline: (§1)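 Unfolding free energy was derived, per protease or combined, against a sequence-predicted unfolded-state K50 and a shared folded-state K50, starting from K50 inferred by Bayesian fitting of sequencing counts. Digestion with trypsin and chymotrypsin was carried out on designed mini-proteins under 80 residues without cysteine in a PA-tagged cDNA display construct. Only designs with AlphaFold2 dimer inter-PAE above 15 were kept.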

[2] = folding stability dG unfold from trypsin proteolysis; higher = more stable
Outline: as §1

[3] = folding stability dG unfold (combined trypsin and chymotrypsin); higher = more stable
Outline: as §1

| Sequence | folding stability dG unfold [1] | folding stability dG unfold [2] | folding stability dG unfold [3] |
| --- | --- | --- | --- |
| SAGGSAGGSAGMTVTETPVLVRYPEDGSVRPFTLTTSPEPGTLTLDLPPAEWPPLEITPPGSAGGSAGGSAG [r3_454_JUSTAS] | -0.486 ± 0.33 kcal/mol | -0.0964 ± 0.12 kcal/mol | -0.324 ± 0.17 kcal/mol |
| SAGGSSSASNISTNPTPLPEESVTVTASSDGVITVTITDPNGVPTTYTYNIPSGSIEEAIAEAISSSAGGSA [r2_298_JUSTAS] | 2.06 ± 0.09 kcal/mol | 1.86 ± 0.059 kcal/mol | 1.97 ± 0.094 kcal/mol |
| SAGGSAGGSAGSTITIRINGKTYTIEVDESEEEALERIRELARALLPEGEVEVTVERREPSAGGSAGGSAGG [r11_1028_TrROS_Hall] | 3.374 ± 0.026 kcal/mol | 2.2 ± 0.047 kcal/mol | 2.98 ± 0.079 kcal/mol |
| SMTVKIELEVEIEVPETPEELRKLAEALAEELGIEEVKVVEIEYDPETKTVRVKVEITVKLPPPPPEEEESA [r9_918_TrROS_Hall] | 2.89 ± 0.25 kcal/mol | 3.11 ± 0.14 kcal/mol | 3.13 ± 0.21 kcal/mol |
| SLLENLKIEEIKEYTLPDGSPAIVIRFGDYTIVFNPGTGELRIYKGDKIIRTITIPFPIPDPNKPEDLAASA [r9_1065_TrMRF] | 3.405 ± 0.034 kcal/mol | 3.22 ± 0.16 kcal/mol | 3.28 ± 0.084 kcal/mol |
| SAGMIEIKSEDGSTFRIEFDKETGEVKVEYDKNTGVVKVTLPDGKEVEIEIEGMSLEEVLKKLEELLKKSAG [r5_447_TrROS_Hall] | 1.78 ± 0.13 kcal/mol | 2.01 ± 0.19 kcal/mol | 1.94 ± 0.22 kcal/mol |
| SAGGSAGGSEKEVYVRNENGELYRFRAKAAPKLKLKLKLELERDENGNLSLRLELEVVSEEDLSAGGSAGGS [r12_1027_TrROS_Hall] | 5.18 ± 0.15 kcal/mol | 3.57 ± 0.14 kcal/mol | 4.63 ± 0.4 kcal/mol |
| SAGMTLTIEVLIKVETPEEARKAAEELARRLAEEGYTVTVEVVKVEEVTLPDGSKYYRVTVKVTVEPAPSAG [r5_158_TrROS_Hall] | 5.62 ± 0.15 kcal/mol | 5.08 ± 0.38 kcal/mol | 5.78 ± 0.31 kcal/mol |
| SKTLTLEVEVPEGPVRIVVEASDGSRLEAEVPADEKVTFTIPIPPDIPEETKVTVRVYNPETGEVTELEASA [r9_275_TrMRF] | 1.11 ± 0.069 kcal/mol | 0.353 ± 0.063 kcal/mol | 0.789 ± 0.066 kcal/mol |
| SKPMSPRDQLREIADDIAEKLNEKNGKPYKVRVEFEYPNMPFEIEIPPEAPIEDIMDHFPGWKIKVEIEPSA [r9_513_TrROS] | 0.0344 ± 0.32 kcal/mol | 0.00988 ± 0.15 kcal/mol | 0.0339 ± 0.52 kcal/mol |
| SAGGMVLKPVKLNGNENLKTTADGAEVEYTSDGKGNVTITVRYEPNLTVEALVNGSTVTLVKTEEGYLSAGG [r13_92_JUSTAS] | 0.937 ± 0.11 kcal/mol | 0.843 ± 0.09 kcal/mol | 0.867 ± 0.15 kcal/mol |
| SAGGSAGGSGPMPVVVPVEVVVAPGEVDAYVARLRAEGLEVLSVETEPDPEGGTRVTVTVRRLSAGGSAGGS [r12_905_JUSTAS] | 3.72 ± 0.057 kcal/mol | 2.74 ± 0.054 kcal/mol | 3.41 ± 0.059 kcal/mol |
| SAGGSAGGSAGGSSGTSVSTEVSSSPVVTKTEYTKLDDGWSTTTTVVSTLPNALAPELTTSAGGSAGGSAGG [r7_845_JUSTAS] | 0.255 ± 0.024 kcal/mol | 1.06 ± 0.082 kcal/mol | 0.727 ± 0.079 kcal/mol |
| SAGGSAGGSAGKMYKAKVKIGNKEYEAYIEENVPEDGTITVKFDDKTIEIKAENIEVYDESAGGSAGGSAGG [r11_247_TrMRF] | 1.32 ± 0.11 kcal/mol | 0.905 ± 0.031 kcal/mol | 1.15 ± 0.067 kcal/mol |
| SAGMNPNNPNVKTTTVTYTFPLPATESVEEAVERLKAEAEAAGKPIKTVEVTVERTPEDTVVIKATFVSSAG [r5_65_JUSTAS] | 1.71 ± 0.057 kcal/mol | 1.34 ± 0.072 kcal/mol | 1.59 ± 0.093 kcal/mol |
| SAGGSAGGSAGGPNLQIMVMQTDNSLTVMIYLPEGWVIVYKITPMKIELEIMPLKDPDDSAGGSAGGSAGGS [r10_1169_TrROS] | 5.17 ± 0.32 kcal/mol | 3.98 ± 0.32 kcal/mol | 4.89 ± 0.28 kcal/mol |
| SDLEAVLAAIDAVPPGTVVRIRLTLPDGVPLEITFDAGKEEIKALLEELVKEHPDVPIGIEIEVFPPEELSA [r9_37_TrMRF] | 3.71 ± 0.093 kcal/mol | 3.38 ± 0.1 kcal/mol | 3.61 ± 0.081 kcal/mol |
| SAGGSAGGSATPPDSSVSVKVEITVGGEKKLVTATLTTLPNGTTSLTLNFDIPPDKYELSLVSAGGSAGGSA [r18_428_JUSTAS] | 2.74 ± 0.09 kcal/mol | 2.52 ± 0.11 kcal/mol | 2.51 ± 0.15 kcal/mol |
| SAGGKKKITIEVEKKEDGKEVKVKIKVDGKEIEITFPENMSKEELLEAAKKLAEENNIEIEEVEIYPSAGGS [r16_753_TrROS_Hall] | 1.54 ± 0.091 kcal/mol | 1.24 ± 0.1 kcal/mol | 1.53 ± 0.15 kcal/mol |
| SAGGSALDPGKPVRVTVNLRVYRPLPDGTVKTFPSATVDLPVEEVLDLAKALPKEYTVTVDSIVVDSAGGSA [r15_833_TrMRF] | 0.663 ± 0.17 kcal/mol | 0.249 ± 0.14 kcal/mol | 0.513 ± 0.18 kcal/mol |
| SAVITLPDGTTVPSTVVEETETPDGVRITVRTERDGVLEIVDLYEPPGGEVTVLSTEVVPVPPGDPALESAG [r14_13_JUSTAS] | -0.00381 ± 0.062 kcal/mol | 0.518 ± 0.028 kcal/mol | 0.285 ± 0.091 kcal/mol |
| SAGKKKIKIEIVKVEKNENGETIIRVKVKLEDGSEKEITINLDDLKNGNLKNMTAEEIAKLFPNIEIESAGG [r19_74_TrROS_Hall] | 1.58 ± 0.084 kcal/mol | 2.35 ± 0.062 kcal/mol | 1.88 ± 0.18 kcal/mol |
| SAGGSAGGSASKPYTITLPGNYRIEVYELPDGTYLARIYFPDKPGYYALALLTDNSIYIFPSAGGSAGGSAG [r3_170_TrMRF] | 3.691 ± 0.019 kcal/mol | 3.05 ± 0.07 kcal/mol | 3.47 ± 0.068 kcal/mol |
| SASITLTAPGGKPVTLPVPPSLSVLSVELDPATGRWTIELQDPATGERFTVTVYAPPSGPAGVEVTPNVSAG [r14_311_JUSTAS] | 3.409 ± 0.02 kcal/mol | 3.61 ± 0.04 kcal/mol | 3.486 ± 0.032 kcal/mol |
